Measurements as given in patent US20250026849A1 (ARCELLX, published 2025).
Changes are numbered by the printed parent chain. Values belong to the binder of their own block, whether it stands above or below them.

How the values were obtained:
BCMA = molecular target: T1, BCMA (Homo sapiens (Human), UniProt Q02223 1-54, limits assumed); test: ELISA, format not described; design: unit not given here
T1 sequence: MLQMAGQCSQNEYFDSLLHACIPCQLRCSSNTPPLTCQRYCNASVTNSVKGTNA

P26 = molecular target: T2, P26 (human, UniProt P02771 381-609, limits assumed); test: ELISA, format not described; design: unit not given here
T2 construct: also called AFP p26
T2 sequence: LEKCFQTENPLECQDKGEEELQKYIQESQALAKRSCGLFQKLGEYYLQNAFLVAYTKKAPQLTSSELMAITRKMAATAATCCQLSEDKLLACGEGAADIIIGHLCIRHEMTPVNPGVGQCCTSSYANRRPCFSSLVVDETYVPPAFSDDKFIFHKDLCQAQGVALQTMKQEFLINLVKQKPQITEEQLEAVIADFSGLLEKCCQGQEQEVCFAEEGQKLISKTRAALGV

- ELISA_avg (BCMA): 5.98
B1: D-domain SEQ ID NO: 70 (designed binder)
chain: MGSWSEFYDRLYAINQRLFALGGSEAELAAFEKEIAAFESELQAYKGKGNPEVEDLRWYAAFIRAQLQAYRHN

- ELISA_avg (BCMA): 14.7
B2: D-domain SEQ ID NO: 71 (designed binder)
chain: B1 chain with S5Y, Y12D, N15V, Q16H, F19D, D55N, F62M, A65V, Q66R

- ELISA_avg (BCMA): 6.08
B3: D-domain SEQ ID NO: 58 (designed binder)
chain: MGSWVEFAWRLTAIHTRLWALGGSEAELAAFEKEIAAFESELQAYKGKGNPEVESLRKYAAKIRKQLQAYRHN

- ELISA_avg (BCMA): 18
B4: D-domain SEQ ID NO: 60 (designed binder)
chain: B3 chain with V5S, T12E, T16Q, W19S, K58L, Y59F, K62Q, K65E, Q66N

- ELISA_avg (BCMA): 15.1
B5: D-domain SEQ ID NO: 59 (designed binder)
chain: MGSWTEFAWRLEAINQRLQALGGSEAELAAFEKEIAAFESELQAYKGKGKPEVEALRAYAAKIRTRLQAYRHN

- ELISA_avg (BCMA): 11.5
B6: D-domain SEQ ID NO: 61 (designed binder)
chain: B3 chain with V5N, T12I, H15N, T16Q, K58H, Y59F, K62N, K65N, Q66D

- ELISA_avg (BCMA): 9.76
B7: D-domain SEQ ID NO: 102 (designed binder)
chain: MGSWVEFYDRLAAIRKRLYALGGSEAELAAFEKEIAAFESELQAYKGKGNPEVEELRFRAALIRIWLQAYRHN

- ELISA_avg (BCMA): 11.6
B8: D-domain SEQ ID NO: 108 (designed binder)
chain: B7 chain with V5S, Y8Q, D9Q, A12H, K16T, R59E, L62I, I65V, W66M

- ELISA_avg (BCMA): 3.31
B9: D-domain SEQ ID NO: 110 (designed binder)
chain: B7 chain with V5Q, Y8T, D9G, A12H, K16H, Y19E, R59E, L62Y, I65V

- ELISA_avg (BCMA): 4.68
B10: D-domain SEQ ID NO: 109 (designed binder)
chain: MGSWYEFQNRLGAINRRLNALGGSEAELAAFEKEIAAFESELQAYKGKGNPEVEELRFEAAIIRVMLQAYRHN

- ELISA_avg (P26): 18.4
B11: D domain SEQ ID NO: 857 (designed binder)
chain: MGSWKEFIQRLDAIHYRLWALGGSEAELAAFEKEIAAFESELQAYKGKGNPEVEYLRFVAAFIRFELQAYRHN

- ELISA_avg (P26): 28.3
B12: D domain SEQ ID NO: 858 (designed binder)
chain: B11 chain with K5S, Q9F, Y16S, W19Q, V59I, F62E, F65L, E66K

- ELISA_avg (BCMA): 7.58
B13: D-domain SEQ ID NO: 98 (designed binder)
chain: MGSWSEFRGRLQAIHSRLNALGGSEAELAAFEKEIAAFESELQAYKGKGNPEVEELRYSAAIIRIYLQAYRHN

- ELISA_avg (BCMA): 8.55
B14: D-domain SEQ ID NO: 62 (designed binder)
chain: MGSWTEFAWRLIAIDQRLMALGGSEAELAAFEKEIAAFESELQAYKGKGNPEVEILRELAAEIRFHLQAYRHN

- ELISA_avg (BCMA): 18.6
B15: D-domain SEQ ID NO: 66 (designed binder)
chain: MGSWIEFQERLDAIFYRLHALGGSEAELAAFEKEIAAFESELQAYKGKGNPEVEDLRDAAATIRRQLQAYRHN

- ELISA_avg (BCMA): 20
B16: D-domain SEQ ID NO: 67 (designed binder)
chain: B15 chain with E9Q, H19Y, D55N, A59M, T62I, R65K

- ELISA_avg (BCMA): 14.1
B17: D-domain SEQ ID NO: 68 (designed binder)
chain: B15 chain with I5Y, E9S, H19F, D55K, D58E, T62S, R65T

- ELISA_avg (BCMA): 12.9
B18: D-domain SEQ ID NO: 63 (designed binder)
chain: MGSWSEFMNRLDAITYRLVALGGSEAELAAFEKEIAAFESELQAYKGKGNPEVELLRHYAAQIRDSLQAYRHN

- ELISA_avg (BCMA): 10.2
B19: D-domain SEQ ID NO: 69 (designed binder)
chain: B1 chain with Y8I, Y12D, N15T, Q16Y, D55N, A61G, F62V, A65E

- ELISA_avg (BCMA): 9.87
B20: D-domain SEQ ID NO: 64 (designed binder)
chain: B18 chain with S5T, N9E, T15S, V19W, L55V, H58D, Q62I, D65N

- ELISA_avg (BCMA): 10.8
B21: D-domain SEQ ID NO: 65 (designed binder)
chain: B18 chain with S5A, N9D, V19W, L55E, H58G, Q62I, D65S, S66E

- ELISA_avg (P26): 5.28
B22: D domain SEQ ID NO: 854 (designed binder)
chain: MGSWVEFSGRLIAIDNRLWALGGSEAELAAFEKEIAAFESELQAYKGKGNPEVEYLRMWAAEIRYILQAYRHN

- ELISA_avg (P26): 17.9
B23: D domain SEQ ID NO: 856 (designed binder)
chain: B11 chain with K5H, I8M, Q9E, D12I, H15D, Y16G, F65D, E66V

- ELISA_avg (P26): 18.6
B24: D domain SEQ ID NO: 853 (designed binder)
chain: B22 chain with V5M, S8F, G9D, I12V, N16E, Y65F, I66L

- ELISA_avg (P26): 21.4
B25: D domain SEQ ID NO: 855 (designed binder)
chain: B22 chain with S8H, G9H, I12F, N16E, W59V

- ELISA_avg (P26): 16.9
B26: D domain SEQ ID NO: 852 (designed binder)
chain: B22 chain with V5H, S8I, G9T, I12E, N16Q, M58F, Y65F

- ELISA_avg (BCMA): 4.05
B27: D-domain SEQ ID NO: 74 (designed binder)
chain: MGSWFEFQHRLEAISMRLHALGGSEAELAAFEKEIAAFESELQAYKGKGNPEVEELRWQAAYIRVVLQAYRHN

- ELISA_avg (BCMA): 14.2
B28: D-domain SEQ ID NO: 77 (designed binder)
chain: B27 chain with F5Y, H9V, E12Q, M16W, H19K, P51H, W58I, Y62L, V66M

- ELISA_avg (BCMA): 18.7
B29: D-domain SEQ ID NO: 105 (designed binder)
chain: B27 chain with F5I, Q8S, S15V, M16D, H19G, W58N, Q59T, Y62I, V66Y

- ELISA_avg (BCMA): 18
B30: D-domain SEQ ID NO: 75 (designed binder)
chain: B27 chain with F5V, H9S, S15A, M16T, H19R, Y62W, V65M, V66M

- ELISA_avg (BCMA): 3.11
B31: D-domain SEQ ID NO: 76 (designed binder)
chain: B27 chain with F5E, H9Y, E12G, S15A, M16A, H19Q, Y62M, V65F, V66M

- ELISA_avg (P26): 13.2
B32: D domain SEQ ID NO: 887 (designed binder)
chain: MGSWTEFWHRLEAIDSRLWALGGSEAELAAFEKEIAAFESELQAYKGKGNPEVESLREHAAHIRVWLQAYRHN

- ELISA_avg (P26): 26
B33: D domain SEQ ID NO: 881 (designed binder)
chain: B22 chain with S8V, I12N, N16A, Y55E, M58H, W59H, Y65N, I66W

- ELISA_avg (P26): 18.2
B34: D domain SEQ ID NO: 884 (designed binder)
chain: B32 chain with T5Y, W8V, H9V, E12F, S16E, V65S

- ELISA_avg (P26): 30.2
B35: D domain SEQ ID NO: 889 (designed binder)
chain: B32 chain with T5S, W8F, H9K, S16R, S55E

- ELISA_avg (P26): 27.1
B36: D domain SEQ ID NO: 876 (designed binder)
chain: B32 chain with T5F, W8Y, H9E, E12N, S55K, E58A, H62S, V65T

- ELISA_avg (P26): 27.3
B37: D domain SEQ ID NO: 890 (designed binder)
chain: B32 chain with T5Y, W8Q, H9Q, S16T, S55E, V65H

- ELISA_avg (P26): 20.9
B38: D domain SEQ ID NO: 886 (designed binder)
chain: B32 chain with T5Y, W8R, H9A, E12L, S16E, S55H, V65N, W66F

- ELISA_avg (P26): 28.7
B39: D domain SEQ ID NO: 883 (designed binder)
chain: B32 chain with T5N, W8F, H9Q, E12N, S16E, S55D, E58Q, H62N, V65W

- ELISA_avg (P26): 30.3
B40: D domain SEQ ID NO: 879 (designed binder)
chain: B32 chain with T5E, W8Y, H9Y, S16A, W19F, S55E, E58V, V65D

- ELISA_avg (P26): 17.1
B41: D domain SEQ ID NO: 891 (designed binder)
chain: B32 chain with W8E, H9K, E12H, S16Y, S55D, H62A, V65H

- ELISA_avg (P26): 14.8
B42: D domain SEQ ID NO: 880 (designed binder)
chain: B32 chain with T5V, W8H, H9Y, E12Q, S16A, S55E, E58V, V65K

- ELISA_avg (P26): 30.5
B43: D domain SEQ ID NO: 888 (designed binder)
chain: B32 chain with W8Q, H9N, E12N, S16H, H62K

- ELISA_avg (P26): 16
B44: D domain SEQ ID NO: 885 (designed binder)
chain: B32 chain with T5Y, W8Y, H9L, E12D, S16H, S55M, V65K

- ELISA_avg (P26): 19.2
B45: D domain SEQ ID NO: 868 (designed binder)
chain: B32 chain with T5L, W8Y, E12N, E58D, V65E

- ELISA_avg (P26): 27
B46: D domain SEQ ID NO: 878 (designed binder)
chain: B32 chain with T5S, W8V, H9K, E12D, S16Q, E58V, H62A, V65A

- ELISA_avg (P26): 9.4
B47: D domain SEQ ID NO: 877 (designed binder)
chain: B32 chain with T5I, W8Y, H9W, S16Q, S55D, E58V, H62A, V65W

- ELISA_avg (P26): 10
B48: D domain SEQ ID NO: 882 (designed binder)
chain: MGSWNEFMDRLNAIDNRLWALGGSEAELAAFEKEIAAFESELQAYKGKGNPEVENLRKQAASIRLWLQAYRHN

- ELISA_avg (P26): 5.92
B49: D domain SEQ ID NO: 859 (designed binder)
chain: B48 chain with N5F, M8Y, N16A, K58V, Q59H, S62A, L65E

- ELISA_avg (P26): 30.4
B50: D domain SEQ ID NO: 893 (designed binder)
chain: B32 chain with T5L, W8S, H9Q, E12T, S55N, H62K, V65N

- ELISA_avg (P26): 24.4
B51: D domain SEQ ID NO: 892 (designed binder)
chain: B32 chain with W8H, H9Q, E12D, S16E, S55F, H62K, V65M

- ELISA_avg (BCMA): 9.08
B52: D-domain SEQ ID NO: 106 (designed binder)
chain: B10 chain with Y5E, Q8S, N9D, G12E, N15L, N19D, E55D, E59A, M66Q

- ELISA_avg (BCMA): 6.3
B53: D-domain SEQ ID NO: 107 (designed binder)
chain: B15 chain with I5M, Q8S, E9H, F15H, Y16E, H19Y, D58F, T62I, R65V

- ELISA_avg (P26): 9.6
B54: D domain SEQ ID NO: 851 (designed binder)
chain: MGSWHEFYDRLDAIYFRLWALGGSEAELAAFEKEIAAFESELQAYKGKGNPEVELLRLLAAEIRKELQAYRHN
